# Measurements reported in the supplement of paper PMC11246515.
# ± gives the standard deviation of the averaged measurements.
# Assay: total protein half-life in vivo (active degradation + dilution); higher = more stable protein
# [1] = E. coli NCM3722 delta-clpP delta-lon delta-hslV, growth: N-lim chemostat, doubling time 6 h
# [2] = E. coli NCM3722 delta-clpP, growth: N-lim chemostat, doubling time 6 h
# [3] = E. coli NCM3722 delta-hslV, growth: N-lim chemostat, doubling time 6 h
# [4] = E. coli NCM3722 delta-lon, growth: N-lim chemostat, doubling time 6 h
# [5] = E. coli NCM3722 delta-smpB, growth: N-lim chemostat, doubling time 6 h
# [6] = wild type E. coli NCM3722, growth: C-lim chemostat, doubling time 3 h
# [7] = wild type E. coli NCM3722, growth: C-lim chemostat, doubling time 6 h
# [8] = wild type E. coli NCM3722, growth: C-lim chemostat, doubling time 12 h
# [9] = wild type E. coli NCM3722, growth: N-lim chemostat, doubling time 6 h
# [10] = wild type E. coli NCM3722, growth: N-lim chemostat, doubling time 12 h
# [11] = wild type E. coli NCM3722, growth: P-lim chemostat, doubling time 6 h
# [12] = wild type E. coli NCM3722, growth: P-lim chemostat, doubling time 12 h
Substance,total protein half-life in vivo [1] [h],total protein half-life in vivo [2] [h],total protein half-life in vivo [3] [h],total protein half-life in vivo [4] [h],total protein half-life in vivo [5] [h],total protein half-life in vivo [6] [h],total protein half-life in vivo [7] [h],total protein half-life in vivo [8] [h],total protein half-life in vivo [9] [h],total protein half-life in vivo [10] [h],total protein half-life in vivo [11] [h],total protein half-life in vivo [12] [h]
MMYRIRNWLVATLLLLCTPVGAATLSDIQVSNGNQQARITLSFIGDPDYAFSHQSKRTVALDIKQTGVIQGLPLLFSGNNLVKAIRSGTPKDAQTLRLVVDLTENGKTEAVKRQNGSNYTVVFTINADVPPPPPPPPVVAKRVETPAVVAPRVSEPARNPFKTESNRTTGVISSNTVTRPAARATANTGDKIIIAIDAGHGGQDPGAIGPGGTREKNVTIAIARKLRTLLNDDPMFKGVLTRDGDYFISVMGRSDVARKQNANFLVSIHADAAPNRSATGASVWVLSNRRANSEMASWLEQHEKQSELLGGAGDVLANSQSDPYLSQAVLDLQFGHSQRVGYDVATSMISQLQRIGEIHKRRPEHASLGVLRSPDIPSVLVETGFISNNSEERLLASDDYQQQLAEAIYKGLRNYFLAHPMQSAPQGATAQTASTVTTPDRTLPN,2.15 ± 0.036,2.05 ± 0.41,2.71 ± 1.6,1.97 ± 0.085,1.74 ± 0.34,1.64 ± 0.18,2.63 ± 0.23,4.87 ± 1.5,2.54 ± 0.74,2.65 ± 0.31,3.4 ± 3.2,2.92 ± 1.1
MRKNTYAMRYVAGQPAERILPPGSFASIGQALPPGEPLSTEERIRILVWNIYKQQRAEWLSVLKNYGKDAHLVLLQEAQTTPELVQFATANYLAADQVPAFVLPQHPSGVMTLSAAHPVYCCPLREREPILRLAKSALVTVYPLPDTRLLMVVNIHAVNFSLGVDVYSKQLLPIGDQIAHHSGPVIMAGDFNAWSRRRMNALYRFAREMSLRQVRFTDDQRRRAFGRPLDFVFYRGLNVSEASVLVTRASDHNPLLVEFSPGKPDK [P0A8U2],,4.41,2.48 ± 0.64,3.2 ± 0.29,2.65 ± 0.35,1.62 ± 0.14,2.47 ± 0.035,3.514 ± 0.023,2.76 ± 0.092,4.14 ± 0.052,2.42 ± 0.055,3.83 ± 0.2
MTITKLAWRDLVPDTDSYQEIFAQPHLIDENDPLFSDTQPRLQFALEQLLHTRASSSFMLAKAPEESEYLNLIANAARTLQSDAGQLVGGHYEVSGHSIRLRHAVSADDNFATLTQVVAADWVEAEQLFGCLRQFNGDITLQPGLVHQANGGILIISLRTLLAQPLLWMRLKNIVNRERFDWVAFDESRPLPVSVPSMPLKLKVILVGERESLADFQEMEPELSEQAIYSEFEDTLQIVDAESVTQWCRWVTFTARHNHLPAPGADAWPILIREAARYTGEQETLPLSPQWILRQCKEVASLCDGDTFSGEQLNLMLQQREWREGFLAERMQDEILQEQILIETEGERIGQINALSVIEFPGHPRAFGEPSRISCVVHIGDGEFTDIERKAELGGNIHAKGMMIMQAFLMSELQLEQQIPFSASLTFEQSYSEVDGDSASMAELCALISALADVPVNQSIAITGSVDQFGRAQPVGGLNEKIEGFFAICQQRELTGKQGVIIPTANVRHLSLHSELVKAVEEGKFTIWAVDDVTDALPLLLNLVWDGEGQTTLMQTIQERIAQASQQEGRHRFPWPLRWLNWFIPN,6.81 ± 0.57,6.24 ± 0.11,7.24 ± 1.1,6 ± 0.53,6.58 ± 0.43,3.017 ± 0.024,5.99 ± 0.54,9.75 ± 2.2,6.17 ± 0.21,13.7 ± 1.1,6.4 ± 0.075,12.6 ± 1.4
MSHRRSTVKGSLSFANPTVRAWLFQILAVVAVVGIVGWLFHNTVTNLNNRGITSGFAFLDRGAGFGIVQHLIDYQQGDTYGRVFIVGLLNTLLVSALCIVFASVLGFFIGLARLSDNWLLRKLSTIYIEIFRNIPPLLQIFFWYFAVLRNLPGPRQAVSAFDLAFLSNRGLYIPSPQLGDGFIAFILAVVMAIVLSVGLFRFNKTYQIKTGQLRRTWPIAAVLIIGLPLLAQWLFGAALHWDVPALRGFNFRGGMVLIPELAALTLALSVYTSAFIAEIIRAGIQAVPYGQHEAARSLGLPNPVTLRQVIIPQALRVIIPPLTSQYLNIVKNSSLAAAIGYPDMVSLFAGTVLNQTGQAIETIAMTMSVYLIISLTISLLMNIYNRRIAIVER,,,3.79,,,,,,4.44 ± 0.14,6.58,,
MQSLHGNCLIAYARHKYILTMVNGEYRYFNGGDLVFADASQIRVDKCVENFVFVSRDTLSLFLPMLKEEALNLHAHKKVSSLLVHHCSRDIPVFQEVAQLSQNKNLRYAEMLRKRALIFALLSVFLEDEHFIPLLLNVLQPNMRTRVCTVINNNIAHEWTLARIASELLMSPSLLKKKLREEETSYSQLLTECRMQRALQLIVIHGFSIKRVAVSCGYHSVSYFIYVFRNYYGMTPTEYQERSAQRLSNRDSAASIVAQGNFYGTDRSAEGIRL,6.49 ± 1,1.14,,,,,,,,,,
MMSESNKQQAVNKLTEIVANFTAMISTRMPDDVVDKLKQLKDAETSSMGKIIYHTMFDNMQKAIDLNRPACQDTGEIMFFVKVGSRFPLLGELQSILKQAVEEATVKAPLRHNAVEIFDEVNTGKNTGSGVPWVTWDIIPDNDDAEIEVYMAGGGCTLPGRSKVLMPSEGYEGVVKFVFENISTLAVNACPPVLVGVGIATSVETAAVLSRKAILRPIGSRHPNPKAAELELRLEEGLNRLGIGPQGLTGNSSVMGVHIESAARHPSTIGVAVSTGCWAHRRGTLLVHADLTFENLSHTRSAL,,6.19,6.18,6.4,,,,,6.42,,5.88,
P0AAG3,6.26 ± 0.74,6.4 ± 1.1,6.83 ± 1.4,6.053 ± 0.0072,5.56 ± 0.4,3.02 ± 0.25,6.06 ± 0.07,11.3 ± 0.26,5.82 ± 0.16,11.6 ± 0.28,5.56 ± 0.15,11.4 ± 1.6
MSDEGLAPGKRLSEIRQQQGLSQRRAAELSGLTHSAISTIEQDKVSPAISTLQKLLKVYGLSLSEFFSEPEKPDEPQVVINQDDLIEMGSQGVSMKLVHNGNPNRTLAMIFETYQPGTTTGERIKHQGEEIGTVLEGEIVLTINGQDYHLVAGQSYAINTGIPHSFSNTSAGICRIISAHTPTTF [P0A9U6],5.35 ± 0.67,5.41 ± 3.1,3.29,4.06 ± 0.25,2.66 ± 0.063,,4.03 ± 0.12,5.53 ± 0.11,2.7 ± 0.51,3.47 ± 0.064,4.43 ± 0.92,6.69 ± 0.82
MKTKVILSQQMASAIIAAGQEEAQKNNWSVSIAVADDGGHLLALSRMDDCAPIAAYISQEKARTAALGRRETKGYEEMVNNGRTAFVTAPLLTSLEGGVPVVVDGQIIGAVGVSGLTGAQDAQVAKAAAAVLAK [P0AEQ1],4.93 ± 0.46,4.12 ± 0.23,,4.27 ± 0.26,4.21 ± 0.32,3.04 ± 0.057,5.267 ± 0.02,9.62 ± 0.24,4.29 ± 0.12,5.98,5.43 ± 0.44,11.6 ± 0.93
MHRQSFFLVPLICLSSALWAAPATVNVEVLQDKLDHPWALAFLPDNHGMLITLRGGELRHWQAGKGLSAPLSGVPDVWAHGQGGLLDVVLAPDFAQSRRIWLSYSEVGDDGKAGTAVGYGRLSDDLSKVTDFRTVFRQMPKLSTGNHFGGRLVFDGKGYLFIALGENNQRPTAQDLDKLQGKLVRLTDQGEIPDDNPFIKESGARAEIWSYGIRNPQGMAMNPWSNALWLNEHGPRGGDEINIPQKGKNYGWPLATWGINYSGFKIPEAKGEIVAGTEQPVFYWKDSPAVSGMAFYNSDKFPQWQQKLFIGALKDKDVIVMSVNGDKVTEDGRILTDRGQRIRDVRTGPDGYLYVLTDESSGELLKVSPRN,1.95 ± 0.037,2.22 ± 1.1,1.44 ± 0.036,,1.43 ± 0.033,1.63 ± 0.43,4.09,5.83 ± 1.6,2.13,,,6.77
MVKKSEFERGDIVLVGFDPASGHEQQGAGRPALVLSVQAFNQLGMTLVAPITQGGNFARYAGFSVPLHCEEGDVHGVVLVNQVRMMDLHARLAKRIGLAADEVVEEALLRLQAVVE,,,,,,,6.08,,,6.76,,10.7
MIWIMLATLAVVFVVGFRVLTSGARKAIRRLSDRLNIDVVPVESMVDQMGKSAGDEFLRYLHRPDESHLQNAAQVLLIWQIVIVDGSEQNLLQWHRILQKARLAAPITDAQVRLALGFLRETEPEMQDINAFQMRYNAFFQPAEGVHWLH [P0ADL3],5.96 ± 1.4,5.141 ± 0.016,4.75,,4.7 ± 0.11,2.98 ± 0.21,5.07 ± 0.086,10.9 ± 2.9,4.71,10.8,4.65 ± 0.24,9.29 ± 1.7
MGEISITKLLVVAALVVLLFGTKKLRTLGGDLGAAIKGFKKAMNDDDAAAKKGADVDLQAEKLSHKE [P0A843],1.78 ± 1,1.57 ± 0.29,1.48 ± 0.19,1.01 ± 0.26,1.05 ± 0.24,0.833 ± 0.13,0.983,1.3 ± 0.34,1.79,2.14 ± 0.98,0.79,1.59 ± 0.77
MANKPSAEELKKNLSEMQFYVTQNHGTEPPFTGRLLHNKRDGVYHCLICDAPLFHSQTKYDSGCGWPSFYEPVSEESIRYIKDLSHGMQRIEIRCGNCDAHLGHVFPDGPQPTGERYCVNSASLRFTDGENGEEING [P0A746],,3.48 ± 0.34,3.1 ± 0.16,3.91 ± 0.56,2.55 ± 0.31,1.95 ± 0.59,4.02 ± 0.54,5.47 ± 0.75,3.22 ± 0.13,4.64 ± 0.16,2.79 ± 0.38,6.29 ± 0.15
MSQVSLSQQLKEGNLFAEQCPSREVLKHVTSRWGVLILVALREGTHRFSDLRRKIGGVSEKMLAQSLQALEQDGFLNRIAYPVVPPHVEYSLTPLGEQVSEKVAALADWIELNLPEVLAVRDERAA [P0ACN2],4.79,,,2.18,2.12,2.01,3.02 ± 0.26,3.86,,,,
